According to patent US20250011456A1 (VILLANELLE LIFE SCIENCE, published 2025):
Positions count from the first letter of the chain named.

T1: Recombinant Human CD14/His Protein (B294801) (human, UniProt P08571 20-352, limits assumed)
T1 construct: Bought His-tagged recombinant human CD14; also called recombinant human CD14 antigen; CD14 antigen; not shown: histidine tag
T1 sequence (looked up): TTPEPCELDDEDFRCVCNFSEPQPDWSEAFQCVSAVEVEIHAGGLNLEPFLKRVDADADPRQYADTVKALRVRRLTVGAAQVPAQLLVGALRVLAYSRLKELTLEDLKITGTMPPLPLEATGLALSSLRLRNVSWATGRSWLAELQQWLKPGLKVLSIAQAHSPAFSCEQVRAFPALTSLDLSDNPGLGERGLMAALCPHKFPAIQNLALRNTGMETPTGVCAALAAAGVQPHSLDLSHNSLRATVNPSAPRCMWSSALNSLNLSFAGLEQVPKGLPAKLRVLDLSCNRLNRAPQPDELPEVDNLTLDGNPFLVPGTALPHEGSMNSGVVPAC

B1: Antibody No. D6DD3D001 (HU1127-mVH/mVL) (antibody, human IgG1, kappa, V domains shown)
VH: DVQLQQSGPGLVKPSQSLSLTCTVTGYSITSDSAWNWIRQFPGNRLEWMGYISYSGSTSYNPSLKSRISITRDTSKNQFFLQLNSVTTEDTATYYCVRGLRFAYWGQGTLVTVSS
VL: DIVLTQSPASLAVSLGQRATISCRASESVDSYVNSFLHWYQQKPGQPPKLLIYRASNLQSGIPARFSGSGSRTDFTLTINPVEADDVATYYCQQSNEDPYTFGGGTKLEIKR
notes: Mouse variable domains of Atibuclimab on human IgG1 constant regions (hFc, 146 kDa); also called Original IgG1 antibody; mouse antibody
B2: Antibody No. MPDDAD002 (HU1127-hVH3/hVL3-2) (antibody, V domains shown)
VH: QLQLQESGPGLVKPSETLSLTCTVSGGSISSDSAWNWIRQPPGKGLEWIGYISYSGSTSYNPSLKSRVTISRDTSKNQFSLKLSSVTAADTAVYYCVRGLRFAYWGQGTLVTVSS
VL: DIQLTQSPSSLSASVGDRVTITCRASESVDSYVSSFLHWYQQKPGKAPKLLIYRASNLQSGVPSRFSGSGSRTDFTLTISSLQPEDVATYYCQQSNEDPYTFGQGTKLEIK
notes: D6DD3D014 with the light chain PTM site NS (VL amino acids 34, 35) changed to SS; Tested as a recombinant antibody with hFc tag, 144 kDa
B3: Antibody No. MPDDAD003 (HU1127-hVH3/hVL3-3) (antibody, V domains shown)
VH: B2 VH
VL: B2 VL with S34T
notes: D6DD3D014 with the light chain PTM site NS (VL amino acids 34, 35) changed to TS; Tested as a recombinant antibody with hFc tag, 144 kDa
B4: Antibody No. MPDDAD004 (HU1127-hVH3/hVL3-4) (antibody, V domains shown)
VH: B2 VH
VL: B2 VL with S34N, S35A
notes: D6DD3D014 with the light chain PTM site NS (VL amino acids 34, 35) changed to NA; Tested as a recombinant antibody with hFc tag, 144 kDa
B5: Antibody No. MPDDAD005 (HU1127-hVH3/hVL3-5) (antibody, V domains shown)
VH: B2 VH
VL: B2 VL with S34Q
notes: D6DD3D014 with the light chain PTM site NS (VL amino acids 34, 35) changed to QS; Tested as a recombinant antibody with hFc tag, 144 kDa

The binders below were run against T1, Recombinant Human CD14/His Protein … (assay: SPR (Biacore 8K), antibody captured on Protein A chip, CD14-His analyte 0.78125-25 nM, 1:1 binding).
Method: The Biacore 8K platform was used to test the kinetic and affinity properties of the antibody. The operation was carried out according to the system instructions and indications.
15 humanized antibodies (numbered D6DD3D002-D6DD3D0016) and 1 mouse antibody (number D6DD3D001) were tested. […] The capture concentration was 1 μg/mL. In Table 8-3, the change factor is the ratio of the equilibrium dissociation constant KD of the humanized to mouse antibody, and reflects the change in affinity after humanization.

Binder	Change Factor (KD relative to mouse antibody D6DD3D001)	Kd	koff	kon
B1	1	0.485 nM	0.000858 s⁻¹	1.77e+06 M⁻¹ s⁻¹

The binders below were run against T1, Recombinant Human CD14/His Protein … (assay: SPR (Biacore 8K), antibody captured (1 ug/mL) on Protein A chip, CD14-His analyte 0.1953125-25 nM, 1:1 binding).
Method: The Biacore 8K platform was used to test the kinetic and affinity properties of the antibody, operating according to system instructions and indications.
Results of Affinity Detection. The affinity of the six antibodies was measured at saturation concentration. […] Change factor is described above.

Binder	Change Factor (KD relative to mouse antibody D6DD3D001)	Kd	koff	kon
B1	1	0.864 nM	0.00108 s⁻¹	1.25e+06 M⁻¹ s⁻¹
B2	3.24	2.8 nM	0.00362 s⁻¹	1.29e+06 M⁻¹ s⁻¹
B3	2.34	2.02 nM	0.0026 s⁻¹	1.29e+06 M⁻¹ s⁻¹
B4	6.86	5.93 nM	0.0046 s⁻¹	775000 M⁻¹ s⁻¹
B5	5.65	4.88 nM	0.00544 s⁻¹	1.11e+06 M⁻¹ s⁻¹
